From article PMC1839166, “Type III Effector Activation via Nucleotide Binding, Phosphorylation, and Host Target Interaction” (PLoS Pathogens, 2007) come the findings set out here.

Experiment [1] deals with T1, avirulence protein B (AvrB), wild type (Pseudomonas syringae pv. glycinea), P13835. The experiment in a line: ITC; VP-ITC microcalorimeter; RIN4_(142–176) peptide (50 to 450 μM) titrated in 6-μl injections into 5 to 25 μM wild-type or variant AvrB, stirring at 255 rpm; wild-type AvrB 6 μM with full-length RIN4 120 μM; nonbinding confirmed at as much as 25 μM and 450 μM. Conditions: remark: other sources report otherwise. (In general: ITC needs no label: the signal is the heat of the interaction.)
T1 sequence (P13835 whole entry): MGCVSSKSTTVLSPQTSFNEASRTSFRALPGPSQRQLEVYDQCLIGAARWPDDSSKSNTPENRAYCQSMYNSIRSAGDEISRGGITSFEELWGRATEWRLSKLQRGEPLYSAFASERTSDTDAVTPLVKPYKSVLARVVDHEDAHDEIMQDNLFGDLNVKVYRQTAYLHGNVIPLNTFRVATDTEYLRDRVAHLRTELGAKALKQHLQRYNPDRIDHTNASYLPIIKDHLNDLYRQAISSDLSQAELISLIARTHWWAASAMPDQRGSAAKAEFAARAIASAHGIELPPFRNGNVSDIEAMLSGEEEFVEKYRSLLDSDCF

Experiment [2] has as its target T1, avirulence protein B (AvrB), wild type …. Described as above. The note with it: remark: other sources report otherwise. The source holds these as a separate data set.

B1: full-length RIN4, Q8GYN5 1-211 (natural protein)
chain: MARSNVPKFGNWEAEENVPYTAYFDKARKTRAPGSKIMNPNDPEYNSDSQSQAPPHPPSSRTKPEQVDTVRRSREHMRSREESELKQFGDAGGSSNEAANKRQGRASQNNSYDNKSPLHKNSYDGTGKSRPKPTNLRADESPEKVTVVPKFGDWDENNPSSADGYTHIFNKVREERSSGANVSGSSRTPTHQSSRNPNNTSSCCCFGFGGK
The term Kd denotes the concentration at which binding is half-saturated. A lower Kd goes with tighter binding. With B1, the figures for the Kd in experiment [1] and in experiment [2] were 1000 nM and 4 µM, respectively.
